Results published in patent EP4578875A1 (Ying Mai de Medical Technology (Guangdong) Co., Ltd., dated 2025).

Molecular target: T1, recombinant human CD3 Epsilon protein (KACTUS) (human, UniProt P07766 23-126)
T1 construct: Bought protein
Test: ELISA, plate coated with 1 ug/ml recombinant human CD3 epsilon

T1 sequence (P07766 23-126): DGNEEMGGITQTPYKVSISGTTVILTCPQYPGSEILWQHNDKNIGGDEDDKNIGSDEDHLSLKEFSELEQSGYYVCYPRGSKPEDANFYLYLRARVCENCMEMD

binding result: binds
B1: anti-Her2/anti-CD3 bispecific antibody comprising the anti-CD3 antibody mutant (mutation site VH-Y61C) (bispecific antibody)
VH: EVQLVESGGGLVQPGGSLRLSCAASGFTFSTYAMNWVRQAPGKGLEWVGRIRSKYNNYATCYADSVKDRFTISRDDSKNSLYLQMNSLKTEDTAVYYCARHGNFGNSYVSWFAYWGQGTLVTVSS
VL: QTVVTQEPSLTVSPGGTVTLTCRSSTGAVTTSNYANWVQQKPGQAPRGLIGGTNKRAPGVPARFSGSLLGDKAALTLLGAQPEDEAEYFCALWYSNLWVFGGGTKLTVL
scFv: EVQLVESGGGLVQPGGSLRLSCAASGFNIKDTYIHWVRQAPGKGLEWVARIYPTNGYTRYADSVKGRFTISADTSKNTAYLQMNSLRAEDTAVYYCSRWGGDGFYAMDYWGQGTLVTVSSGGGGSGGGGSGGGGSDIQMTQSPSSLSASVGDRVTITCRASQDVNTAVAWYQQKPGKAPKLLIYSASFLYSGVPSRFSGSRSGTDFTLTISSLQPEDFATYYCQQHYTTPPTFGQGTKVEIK
notes: also called CD3-Her2 Mutation; CD3-HER2 Mutation
